This passage reports fold change results from publication PMC3302758.

One assay concerns the target 14-3-3β (UniProt P31946). Kind of assay: CFTR IP, 14-3-3β immunoblot. The conditions noted are these: reference: basal cells; sites S660,S670,S700,S712,S737,S753,S768,S795,S813. (In western blotting, separated proteins are transferred to a membrane and probed.)
For a further assay, the target named is 14-3-3ε (UniProt P62258). In words: CFTR IP, 14-3-3ε immunoblot. The conditions noted are these: reference: basal cells; sites S660,S670,S700,S712,S737,S753,S768,S795,S813.

Turning to “CFTR (from UniProt P13569) forskolin 10 µM, 15 min”, the values for the fold change with 14-3-3β and with 14-3-3ε were 2.3 fold and 3.1 fold, respectively.
